Among the data in publication PMC4323994 are IC50 values, retold here.

By IC50 is commonly meant the concentration needed to halve the response being measured. Lower therefore signals greater potency.

What all share (test): ELISA
A general note: In an ELISA, binding on a coated surface is turned into a signal by an enzyme label.

Experiment [1] concerns the target HLA-DR molecule, DRB1*0101 (human).
Experiment [2] addresses HLA-DR molecule, DRB1*0701 (human).
In experiment [3] the target is HLA-DR molecule, DRB1*1501 (human).

Where no end group is shown, it is not given here.

Take GKQLYNVEATSYALLALLQLKDFD (also: amino and carboxyl ends blocked) [C3d_(223–246)]: the IC50 in experiment [1] was < 2000 nM; in experiment [2], < 2000 nM; in experiment [3], 85100 nM.

For the molecule QATFMVFQALAQYQKDAP (also: amino and carboxyl ends blocked) [C3d_(269–286)], the values for the IC50 in experiment [1], in experiment [2] and in experiment [3] were 5630 nM, 2450 nM and > 100000 nM, respectively.

The molecule GKQLYNVEATSYALL (also: amino and carboxyl ends blocked) [C3d_(223–237) wild type peptide (sequence overlapping the P28 peptide segment and C3d_(223–246))] had an IC50 in experiment [1] of 365 nM. This counts as sub-micromolar.
